± gives the uncertainty stated by the source.

This series is described as follows: abundance fitness (aPCA) (normalised: wild type 0, dead -1); higher = more abundant; growth selection in yeast, the domain comes from the species named. The settings on record: Homo sapiens.
Turning to “NEDD4-like E3 ubiquitin-protein ligase WWP2 W450I, O00308”, the abundance fitness is -0.197 ± 0.083.
Regarding “NEDD4-like E3 ubiquitin-protein ligase WWP2 W450K, O00308”, the abundance fitness is -0.598 ± 0.084.
For “NEDD4-like E3 ubiquitin-protein ligase WWP2 W450L, O00308” the value was -0.421 ± 0.048; for “NEDD4-like E3 ubiquitin-protein ligase WWP2 W450M, O00308”, -0.4 ± 0.071.
As to “NEDD4-like E3 ubiquitin-protein ligase WWP2 W450N, O00308”, the abundance fitness was -0.581 ± 0.099.
Next, “NEDD4-like E3 ubiquitin-protein ligase WWP2 W450R, O00308”: -0.735 ± 0.047; “NEDD4-like E3 ubiquitin-protein ligase WWP2 W450S, O00308”: -0.676 ± 0.057.
For “NEDD4-like E3 ubiquitin-protein ligase WWP2 W450T, O00308” the value was -0.475 ± 0.075; for “NEDD4-like E3 ubiquitin-protein ligase WWP2 W450V, O00308”, -0.175 ± 0.033.
For “NEDD4-like E3 ubiquitin-protein ligase WWP2 W450Y, O00308” the value was -0.211 ± 0.081.
“NEDD4-like E3 ubiquitin-protein ligase WWP2 Y454A, O00308” had an abundance fitness of -0.036 ± 0.056.
In turn, “NEDD4-like E3 ubiquitin-protein ligase WWP2 Y454C, O00308” returned an abundance fitness of -0.037 ± 0.048.
For “NEDD4-like E3 ubiquitin-protein ligase WWP2 Y454D, O00308” the value was -0.461 ± 0.12; for “NEDD4-like E3 ubiquitin-protein ligase WWP2 Y454E, O00308”, -0.046 ± 0.052; for “NEDD4-like E3 ubiquitin-protein ligase WWP2 Y454F, O00308”, -0.083 ± 0.059.
For “NEDD4-like E3 ubiquitin-protein ligase WWP2 Y454G, O00308” the value was -0.428 ± 0.045; for “NEDD4-like E3 ubiquitin-protein ligase WWP2 Y454H, O00308”, -0.306 ± 0.066.
For “NEDD4-like E3 ubiquitin-protein ligase WWP2 Y454I, O00308” the value was -0.065 ± 0.062; for “NEDD4-like E3 ubiquitin-protein ligase WWP2 Y454K, O00308”, -0.015 ± 0.067; for “NEDD4-like E3 ubiquitin-protein ligase WWP2 Y454L, O00308”, -0.035 ± 0.031.
Substance “NEDD4-like E3 ubiquitin-protein ligase WWP2 Y454M, O00308” came in with an abundance fitness of -0.185 ± 0.063.
For “NEDD4-like E3 ubiquitin-protein ligase WWP2 Y454N, O00308” the value was -0.121 ± 0.077; for “NEDD4-like E3 ubiquitin-protein ligase WWP2 Y454P, O00308”, -0.592 ± 0.068; for “NEDD4-like E3 ubiquitin-protein ligase WWP2 Y454Q, O00308”, 0.008 ± 0.071.
In turn, “NEDD4-like E3 ubiquitin-protein ligase WWP2 Y454R, O00308” registered an abundance fitness of -0.029 ± 0.033.
Next, “NEDD4-like E3 ubiquitin-protein ligase WWP2 Y454S, O00308”: -0.132 ± 0.043; “NEDD4-like E3 ubiquitin-protein ligase WWP2 Y454T, O00308”: -0.006 ± 0.057.
Substance “NEDD4-like E3 ubiquitin-protein ligase WWP2 Y454V, O00308” came in with an abundance fitness of -0.047 ± 0.048.
Next, “NEDD4-like E3 ubiquitin-protein ligase WWP2 Y454W, O00308”: -0.056 ± 0.035.
For “NEDD4-like E3 ubiquitin-protein ligase WWP2 Y461A, O00308” the value was -0.669 ± 0.072.
In turn, “NEDD4-like E3 ubiquitin-protein ligase WWP2 Y461C, O00308” registered an abundance fitness of -0.538 ± 0.061.
In turn, “NEDD4-like E3 ubiquitin-protein ligase WWP2 Y461D, O00308” displayed an abundance fitness of -1.1 ± 0.15.
“NEDD4-like E3 ubiquitin-protein ligase WWP2 Y461E, O00308” yielded an abundance fitness of -0.577 ± 0.071.
Substance “NEDD4-like E3 ubiquitin-protein ligase WWP2 Y461F, O00308” displayed an abundance fitness of -0.236 ± 0.075.
For “NEDD4-like E3 ubiquitin-protein ligase WWP2 Y461G, O00308”, the abundance fitness was -0.863 ± 0.045.
For “NEDD4-like E3 ubiquitin-protein ligase WWP2 Y461H, O00308” the value was -0.526 ± 0.077; for “NEDD4-like E3 ubiquitin-protein ligase WWP2 Y461I, O00308”, -0.509 ± 0.086; for “NEDD4-like E3 ubiquitin-protein ligase WWP2 Y461K, O00308”, -0.621 ± 0.072.
Next, “NEDD4-like E3 ubiquitin-protein ligase WWP2 Y461L, O00308”: -0.375 ± 0.048; “NEDD4-like E3 ubiquitin-protein ligase WWP2 Y461M, O00308”: -0.424 ± 0.038.
Next, “NEDD4-like E3 ubiquitin-protein ligase WWP2 Y461N, O00308”: -0.752 ± 0.052; “NEDD4-like E3 ubiquitin-protein ligase WWP2 Y461P, O00308”: -0.824 ± 0.045.
For the substance “NEDD4-like E3 ubiquitin-protein ligase WWP2 Y461Q, O00308”, the abundance fitness was -0.671 ± 0.079.
For “NEDD4-like E3 ubiquitin-protein ligase WWP2 Y461R, O00308” the value was -0.762 ± 0.046; for “NEDD4-like E3 ubiquitin-protein ligase WWP2 Y461T, O00308”, -0.445 ± 0.067; for “NEDD4-like E3 ubiquitin-protein ligase WWP2 Y461V, O00308”, -0.529 ± 0.055.
“NEDD4-like E3 ubiquitin-protein ligase WWP2 Y461W, O00308” displayed an abundance fitness of -0.531 ± 0.053.
Next, “NEDD4-like E3 ubiquitin-protein ligase WWP2 Y491A, O00308”: -0.015 ± 0.059; “NEDD4-like E3 ubiquitin-protein ligase WWP2 Y491C, O00308”: -0.011 ± 0.049; “NEDD4-like E3 ubiquitin-protein ligase WWP2 Y491D, O00308”: 0.104 ± 0.074.
Next, “NEDD4-like E3 ubiquitin-protein ligase WWP2 Y491E, O00308”: 0.033 ± 0.064.
For “NEDD4-like E3 ubiquitin-protein ligase WWP2 Y491F, O00308” the value was 0.035 ± 0.07; for “NEDD4-like E3 ubiquitin-protein ligase WWP2 Y491G, O00308”, 0.043 ± 0.04; for “NEDD4-like E3 ubiquitin-protein ligase WWP2 Y491H, O00308”, 0.026 ± 0.072.
“NEDD4-like E3 ubiquitin-protein ligase WWP2 Y491I, O00308” yielded an abundance fitness of 0.022 ± 0.068.
For “NEDD4-like E3 ubiquitin-protein ligase WWP2 Y491K, O00308” the value was -0.061 ± 0.064; for “NEDD4-like E3 ubiquitin-protein ligase WWP2 Y491L, O00308”, -0.016 ± 0.036; for “NEDD4-like E3 ubiquitin-protein ligase WWP2 Y491M, O00308”, 0.018 ± 0.061.
For “NEDD4-like E3 ubiquitin-protein ligase WWP2 Y491N, O00308” the value was -0.208 ± 0.076; for “NEDD4-like E3 ubiquitin-protein ligase WWP2 Y491P, O00308”, -0.003 ± 0.036; for “NEDD4-like E3 ubiquitin-protein ligase WWP2 Y491Q, O00308”, -0.01 ± 0.051.
Next, “NEDD4-like E3 ubiquitin-protein ligase WWP2 Y491R, O00308”: -0.001 ± 0.033.
In the case of “NEDD4-like E3 ubiquitin-protein ligase WWP2 Y491S, O00308”, the abundance fitness was found to be 0.037 ± 0.038.
For “NEDD4-like E3 ubiquitin-protein ligase WWP2 Y491T, O00308” the value was 0.039 ± 0.037.
In the case of “NEDD4-like E3 ubiquitin-protein ligase WWP2 Y491V, O00308”, the abundance fitness was found to be 0 ± 0.038.
“NEDD4-like E3 ubiquitin-protein ligase WWP2 Y491W, O00308”: the abundance fitness is -0.104 ± 0.054.
For “Transcription factor SOX-11 A77S, P35716” the value was 0.01 ± 0.044; for “Transcription factor SOX-11 A102Q, P35716”, -0.628 ± 0.44.
The substance “Transcription factor SOX-11 A111E, P35716” showed an abundance fitness of -0.149 ± 0.094.
In the case of “Transcription factor SOX-11 A111T, P35716”, the abundance fitness is 0.039 ± 0.048.
Next, “Transcription factor SOX-11 D92N, P35716”: -0.18 ± 0.054.
In the case of “Transcription factor SOX-11 D92T, P35716”, the abundance fitness was -0.223 ± 0.079.
For “Transcription factor SOX-11 D115N, P35716” the value was -0.193 ± 0.16; for “Transcription factor SOX-11 E69K, P35716”, -0.57 ± 0.29.
Next, “Transcription factor SOX-11 E69V, P35716”: -0.401 ± 0.074; “Transcription factor SOX-11 E78N, P35716”: -0.727 ± 0.09; “Transcription factor SOX-11 E78V, P35716”: -0.615 ± 0.066.
For “Transcription factor SOX-11 E103S, P35716” the value was -0.684 ± 0.072.
The substance “Transcription factor SOX-11 I62D, P35716” came in with an abundance fitness of -0.203 ± 0.065.
For “Transcription factor SOX-11 I67L, P35716” the value was -0.178 ± 0.066; for “Transcription factor SOX-11 I79L, P35716”, -0.225 ± 0.058; for “Transcription factor SOX-11 I96Q, P35716”, 0.03 ± 0.08.
Turning to “Transcription factor SOX-11 I96R, P35716”, the abundance fitness is -0.209 ± 0.048.

These data come from the Human Domainome abundance scans (Beltran et al. 2025).
